Positions count from the first letter of the chain named.
B1: murine anti-transferrin receptor antibody 128.1 (antibody, V domains shown)
VH: QVQLVQSGAEVKKPGASVKVSCKASGYTFTGYTMNWVRQAPGQGLEWMGRINPHNGGTDYAQKFQGRVTMTRDTSISTAYMELSRLRSDDTAVYYCARGYYYYSLDYWGQGTLVTVSS
VL: DIQMTQSPSSLSASVGDRVTITCRASSSIRYIHWYQQKPGKAPKRLIYDTSNLASGVPSRFSGSGSGTEFTLTISSLQPEDFATYYCHQRNSYPWTFGQGTRLEIK
B2: clone-299 (antibody, V domains shown)
VH: QSMEESGGRLVTPGTPLTLTCTVSGFSLSSYAMSWVRQAPGKGLEWIGYIWSGGSTDYASWAKGRFTISKTSTTVDLKITSPTTEDTATYFCARRYGTSYPDYGDANGFDPWGPGTLVTVSS
VL: AYDMTQTPASVEVAVGGTVTIKCQASQSISSYLSWYQQKPGQRPKLLIYRASTLASGVSSRFKGSGSGTQFTLTISGVECADAATYYCQQCYSSSNVDNTFGGGTEVVVK
notes: Rabbit variable domains
B3: clone 494 VH 1 / VL 0 (mu) (antibody, V domains shown)
VH: QVQLVQSGAEVKKPGASVKVSCKASGFNIKDTYIHWVIQAPGQGLEWMGRIDPANGDTKSDPKFQVRVTITADTSTSTVYMELSSLRSEDTAVYYCVRDYLYPYYFDFWGQGTTVTVSS
VL: KIVMTQSPKSMSMSVGERVTLNCRASESVDTYVSWYQQKPEQSPELLIYGASNRYTGVPDRFTGSGSATDFTLTISSVQAEDLADYYCGQTYNYPLTFGAGTKLELKR
B4: clone 494 VH 4 / VL 3 (antibody, V domains shown)
VH: B3 VH with A16S, V66G, T74E, V79A
VL: EIVLTQSPGTLSLSPGERATLSCRASESVDTYVSWYQQKPGQAPRLLIYGASNRYTGVPDRFSGSGSGTDFTLTISRLEPEDFADYYCGQTYNYPLTFGQGTKLEI
B5: clone 494 VH 3 / VL 4 (antibody, V domains shown)
VH: B3 VH with V66G
VL: B4 VL with E1K, V58I
B6: clone 494 VH 2 / VL 3 (antibody, V domains shown)
VH: B3 VH with D61A
VL: B4 VL
B7: clone 494 VH 4 / VL 1 (antibody, V domains shown)
VH: B3 VH with A16S, V66G, T74E, V79A
VL: KIQMTQSPSSLSASVGDRVTITCRASESVDTYVSWYQQKPGKAPKLLIYGASNRYTGVPSRFSGSGSGTDFTLTISSLQPEDFADYYCGQTYNYPLTFGQGTKLEI
B8: clone 494 VH 1 / VL 2 (antibody, V domains shown)
VH: B3 VH
VL: B4 VL with E1K
B9: clone 494 VH 2 / VL 4 (antibody, V domains shown)
VH: B3 VH with D61A
VL: B4 VL with E1K, V58I
B10: clone 494 VH 1 / VL 4 (antibody, V domains shown)
VH: B3 VH
VL: B4 VL with E1K, V58I
B11: clone 494 VH 3 / VL 2 (antibody, V domains shown)
VH: B3 VH with V66G
VL: B4 VL with E1K
B12: clone 494 VH 4 / VL 0 (mu) (antibody, V domains shown)
VH: B3 VH with A16S, V66G, T74E, V79A
VL: B3 VL
B13: clone 494 VH 4 / VL 2 (antibody, V domains shown)
VH: B3 VH with A16S, V66G, T74E, V79A
VL: B4 VL with E1K
B14: clone 494 VH 1 / VL 3 (antibody, V domains shown)
VH: B3 VH
VL: B4 VL
B15: clone 494 VH 3 / VL 0 (mu) (antibody, V domains shown)
VH: B3 VH with V66G
VL: B3 VL
B16: clone 494 VH 2 / VL 0 (mu) (antibody, V domains shown)
VH: B3 VH with D61A
VL: B3 VL
B17: clone 494 VH 3 / VL 1 (antibody, V domains shown)
VH: B3 VH with V66G
VL: B7 VL
B18: clone 494 VH 2 / VL 1 (antibody, V domains shown)
VH: B3 VH with D61A
VL: B7 VL
B19: clone 494 VH 0 (mu) / VL 1 (antibody, V domains shown)
VH: EVQLQQSGAVLVKPGASVKLSCPASGFNIKDTYIHWVIQRPEQGLEWIGRIDPANGDTKCDPKFQVKATITADTSSNTAYLQLSSLTSEDTAVYFCVRDYLYPYYFDFWGQGTTLTVSS
VL: B7 VL
B20: clone 494 VH 0 (mu) / VL 3 (antibody, V domains shown)
VH: B19 VH
VL: B4 VL
B21: clone 494 VH 0 (mu) / VL 4 (antibody, V domains shown)
VH: B19 VH
VL: B4 VL with E1K, V58I
B22: clone 494 VH 0 (mu) / VL 2 (antibody, V domains shown)
VH: B19 VH
VL: B4 VL with E1K

What follows are binders tested against T1, cynomolgus transferrin receptor (cynomolgus, UniProt H9EXL1 89-760 (rhesus entry)) (assay: BIAcore B4000, biotinylated TfR captured (Example 14), 25 °C).
T1 construct: also called cyTfR; Cyno TfR
T1 sequence (chain, as listed by the source): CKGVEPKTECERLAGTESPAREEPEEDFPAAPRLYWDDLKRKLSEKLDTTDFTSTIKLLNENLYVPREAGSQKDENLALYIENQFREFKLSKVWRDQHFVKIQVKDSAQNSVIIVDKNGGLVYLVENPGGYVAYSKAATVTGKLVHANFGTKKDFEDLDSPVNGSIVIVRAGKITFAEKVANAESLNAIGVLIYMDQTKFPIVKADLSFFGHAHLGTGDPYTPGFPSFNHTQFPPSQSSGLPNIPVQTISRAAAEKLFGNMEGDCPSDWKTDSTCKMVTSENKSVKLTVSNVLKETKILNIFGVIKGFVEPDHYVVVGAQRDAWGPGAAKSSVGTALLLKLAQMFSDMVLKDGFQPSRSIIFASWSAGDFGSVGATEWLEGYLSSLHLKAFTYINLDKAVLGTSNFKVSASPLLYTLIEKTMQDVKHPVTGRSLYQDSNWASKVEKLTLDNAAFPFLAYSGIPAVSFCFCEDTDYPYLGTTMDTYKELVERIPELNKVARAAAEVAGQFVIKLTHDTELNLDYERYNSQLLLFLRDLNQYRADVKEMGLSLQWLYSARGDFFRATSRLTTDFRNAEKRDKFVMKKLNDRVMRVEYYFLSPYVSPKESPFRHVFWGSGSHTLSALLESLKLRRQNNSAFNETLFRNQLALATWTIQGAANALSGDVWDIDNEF

koff [s⁻¹] | Binder
0.0778 | B1

What follows are binders tested against T2, human transferrin receptor (human, UniProt P02786 89-760) (assay: BIAcore).
T2 construct: also called huTfR; hTfR
T2 sequence (P02786 89-760 limits assumed): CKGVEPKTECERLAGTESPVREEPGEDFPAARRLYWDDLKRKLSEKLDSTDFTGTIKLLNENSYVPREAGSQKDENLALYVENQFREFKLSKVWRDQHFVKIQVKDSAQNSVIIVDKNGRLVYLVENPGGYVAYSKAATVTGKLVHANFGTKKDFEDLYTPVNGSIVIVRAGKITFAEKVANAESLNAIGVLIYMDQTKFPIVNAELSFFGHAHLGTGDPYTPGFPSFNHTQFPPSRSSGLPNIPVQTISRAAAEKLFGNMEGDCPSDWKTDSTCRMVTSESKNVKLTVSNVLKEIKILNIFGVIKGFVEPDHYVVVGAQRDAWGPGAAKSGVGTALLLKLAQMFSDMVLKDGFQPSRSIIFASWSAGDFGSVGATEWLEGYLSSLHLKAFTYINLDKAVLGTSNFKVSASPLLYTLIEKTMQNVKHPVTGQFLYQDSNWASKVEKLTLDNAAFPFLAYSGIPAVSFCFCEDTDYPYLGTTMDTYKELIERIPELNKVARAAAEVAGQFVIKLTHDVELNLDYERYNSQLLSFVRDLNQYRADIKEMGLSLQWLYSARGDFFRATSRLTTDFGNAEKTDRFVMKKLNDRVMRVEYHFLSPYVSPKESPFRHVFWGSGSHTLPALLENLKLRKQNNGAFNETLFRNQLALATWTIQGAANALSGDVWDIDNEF

BIAcore t1/2 [min] | Binder
19 | B1
19 | B2

These binders were tested against T1, cynomolgus transferrin receptor (assay: BIAcore).

BIAcore t1/2 [min] | Binder
0.2 | B1
42 | B2

These binders were tested against T3, cynomolgus transferrin receptor on stably transfected CHO cells (cynomolgus) (assay: FACS on cyTfR CHO cells).
T3 construct: whole, on cells; also called Cyno TfR-CHO; cyTfR (FACS)

EC50 [µg/mL] | Binder
0.314 | B1

Each binder was assayed against T2, human transferrin receptor (assay: SPR off-rate).

koff [s⁻¹] | Binder
0.000137 | B3
0.000452 | B4
0.000683 | B5
0.00043 | B6
0.000448 | B7
0.000399 | B8
0.000703 | B9
0.000657 | B10
0.000415 | B11
0.000177 | B12
0.000438 | B13
0.000386 | B14
0.000148 | B15
0.000156 | B16
0.000476 | B17
0.000454 | B18
0.00037 | B19
0.000339 | B20
0.000542 | B21
0.000364 | B22

What follows are binders tested against T1, cynomolgus transferrin receptor (assay: BIAcore T200, biotinylated TfR captured (Example 13), 25 °C).

Kd [nM] | koff [s⁻¹] | kon [M⁻¹ s⁻¹] | Binder
136 | 0.0733 | 541000 | B1

These binders were tested against T3, cynomolgus transferrin receptor on … (assay: FACS, cyno against human TfR CHO cells).

ratio EC50 Cyno/ human | ratio max Cyno/ human | Binder
3.3 | 0.6 | B1
0.9 | 1 | B2
